From article PMC10864275, “Binding kinetics drive G protein subtype selectivity at the β1-adrenergic receptor” (Nature Communications, 2024)
Where “and” joins values, the source holds several entries; their conditions need not be identical. Identical values can stand only once.

Legend:
[1] = target: avi-β1AR-W (turkey β1-adrenergic receptor β1AR-MetΔ5, thermostabilised with E130W, N-terminal biotinylated avi-tag) (turkey) (UniProt P07700); experiment: BLI; biotinylated avi-tagged receptor in LMNG immobilised on streptavidin biosensors; 500 μM xamoterol (partial agonist); mini-Gs in solution at 4 μM (column 4); 20 mM TrisHCl pH 8.0, 150 mM NaCl, 15 mM MgCl2, 0.02% LMNG, 0.1% BSA; 25 °C; 1:1 monophasic local partial fit; each row one of n = …
Chain of avi-β1AR-W (turkey β1-adrenergic receptor β1AR-MetΔ5, thermostabilised with E130W, N-terminal biotinylated avi-tag) (turkey) (P07700 other isoform, or with tags, fused parts or gaps with the stated changes): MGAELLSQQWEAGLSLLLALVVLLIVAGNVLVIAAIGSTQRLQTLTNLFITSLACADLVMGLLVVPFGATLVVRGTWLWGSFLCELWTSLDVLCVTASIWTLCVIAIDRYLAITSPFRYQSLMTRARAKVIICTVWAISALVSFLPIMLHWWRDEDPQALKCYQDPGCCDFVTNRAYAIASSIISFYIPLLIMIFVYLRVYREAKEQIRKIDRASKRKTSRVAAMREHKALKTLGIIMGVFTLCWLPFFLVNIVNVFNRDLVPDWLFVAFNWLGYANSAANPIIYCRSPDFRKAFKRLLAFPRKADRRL

[2] = target: avi-β1AR-E (turkey β1-adrenergic receptor, minimally thermostabilised construct with E130 restored, N-terminal biotinylated avi-tag) (turkey) (UniProt P07700); experiment: as above
Chain of avi-β1AR-E (turkey β1-adrenergic receptor, minimally thermostabilised construct with E130 restored, N-terminal biotinylated avi-tag) (turkey) (P07700 other isoform, or with tags, fused parts or gaps with the stated changes): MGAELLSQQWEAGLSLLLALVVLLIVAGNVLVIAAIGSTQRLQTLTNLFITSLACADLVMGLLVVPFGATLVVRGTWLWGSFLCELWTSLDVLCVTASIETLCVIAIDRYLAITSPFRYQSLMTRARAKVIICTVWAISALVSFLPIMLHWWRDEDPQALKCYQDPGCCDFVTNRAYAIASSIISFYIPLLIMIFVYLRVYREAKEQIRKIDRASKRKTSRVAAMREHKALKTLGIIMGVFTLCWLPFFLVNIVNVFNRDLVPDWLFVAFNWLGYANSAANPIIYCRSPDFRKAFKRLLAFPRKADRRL

[3] = target: avi-β1AR-W (turkey β1-adrenergic receptor β1AR-MetΔ5, thermostabilised with E130W, N-terminal biotinylated avi-tag) (turkey) (UniProt P07700); experiment: BLI; biotinylated avi-tagged receptor in LMNG immobilised on streptavidin biosensors; 500 μM salbutamol (partial agonist); mini-Gs in solution at a single concentration (1 or 2 μM); 20 mM TrisHCl pH 8.0, 150 mM NaCl, 15 mM MgCl2, 0.02% LMNG, 0.1% BSA; 25 °C; 1:1 monophasic local partial fit; one of n = 3 tips
[4] = target: avi-β1AR-E (turkey β1-adrenergic receptor, minimally thermostabilised construct with E130 restored, N-terminal biotinylated avi-tag) (turkey) (UniProt P07700); experiment: as above
[5] = target: avi-β1AR-W (turkey β1-adrenergic receptor β1AR-MetΔ5, thermostabilised with E130W, N-terminal biotinylated avi-tag) (turkey) (UniProt P07700); experiment: BLI; biotinylated avi-tagged receptor in LMNG immobilised on streptavidin biosensors; 500 μM isoprenaline; mini-G in solution at a single concentration (0.125-4 μM); 20 mM TrisHCl pH 8.0, 150 mM NaCl, 15 mM MgCl2, 0.02% LMNG, 0.1% BSA; 25 °C; 1:1 monophasic local partial fit; one of n = 3 tips
[6] = target: avi-β1AR-E (turkey β1-adrenergic receptor, minimally thermostabilised construct with E130 restored, N-terminal biotinylated avi-tag) (turkey) (UniProt P07700); experiment: as above

mini-Gs 393 C96A (domain or fragment)
Kd [1]: 3060 nM and 2950 nM and 2900 nM | Kd [2]: 2370 nM and 2320 nM and 2400 nM | Kd [3]: 1440 nM | Kd [4]: 977 nM and 962 nM and 946 nM | Kd [5]: 173 nM and 170 nM and 141 nM | Kd [6]: 42.9 nM and 46.3 nM and 51.2 nM
